The values below come from patent US20220380801A1, “TRIPARTITE SYSTEMS FOR PROTEIN DIMERIZATION AND METHODS OF USE” (priority 2019, published 2022).

The Kd is the equilibrium constant for the complex coming apart. Read a high Kd as lower affinity.

Experiment [1] concerns the target T1, HCV NS3/4A PR (S139A) (Hepatitis C virus subtype 1a, UniProt A8DG50, A1066T/I1043Q/I1044E/L1039E/L1040E/L1047Q/S1165A, form not given). As to the kind of experiment: Biacore 8K binding kinetics of PRSIM binding molecules. As for the experimental part: The scFv and Tn3 PRSIM binding molecules were covalently immobilised to a CM5 chip surface using standard amine coupling techniques at a concentration of 1 μg/ml in 10 mM sodium acetate pH 4.5.
The HCV NS3/4A PR (S139A), or BSA control, was diluted 1:4 (1.25-20 nM)±10 nM simeprevir in 10 mM Hepes pH 7.4, 150 mM NaCl, 0.05% Surfactant P20, 0.01% DMSO, ensuring constant simeprevir and DMSO concentration. The samples were flowed over the chip at 50 μl/min using single cycle kinetics, with 120 sec association and 600 sec dissociation. The chip surface was regenerated with two 20 sec pulses of 10 mM Glycine-HCl pH 3.0. The final sensorgrams were analysed using the Biacore 8K Evaluation Software and the affinity constant KD was determined using a 1:1 binding model. The same method was used for measuring the affinity of the HCV NS3/4A PR mutants for PRSIM_23 with minor deviations. The mutants were diluted 1:4 (2.5-40 nM)±simeprevir in 10 mM Hepes pH 7.4, 150 mM NaCl, 0.05% Surfactant P20, 0.08% DMSO, ensuring constant simeprevir and DMSO concentration. The samples were flowed over the chip at 50 μl/min using single cycle kinetics, with 180 sec association and 600 sec dissociation.
(In SPR one partner is held on a chip, and binding of the other changes the refractive index at the surface.)

Experiment [2] deals with T1, HCV NS3/4A PR (S139A). As to the kind of experiment: HTRF binding screen. Conditions: in the presence of simeprevir. As for the experimental part:
scFv and Tn3 PRSIM binding molecules that were selective for the HCV NS3/4A PR (S139A) were identified in homogeneous time-resolved fluorescence (HTRF®) assays run in parallel to measure binding in the presence and absence of simeprevir. HCV NS3/4A PR (S139A), and serial dilutions of purified PRSIM binding molecules, were prepared in assay buffer (PBS containing 0.4 M potassium fluoride and 0.1% BSA). Streptavidin cryptate (Cisbio) was pre-mixed with either anti-FLAG XL665 (to detect the Tn3 molecules) or anti-c-myc XL665 (to detect the scFv molecules) in assay buffer. For each assay 2.5 μl of sample titration was added to 2.5 μl HCV NS3/4A PR (S139A) and 2.5 μl of pre-mixed detection reagents. Either 2.5 μl simeprevir or 2.5 μl of a DMSO blank were also added to each well. Background was defined using wells with zero sample addition. Assay plates were incubated overnight at 4° C., prior to reading the time resolved fluorescence at 620 nm and 665 nm emission wavelengths using a PerkinElmer Envision plate reader. Data was analysed by calculating % Delta F values for each sample. Delta F was determined according to equation 1.
% Delta F=((sample 665 nm/620 nm ratio value)−(background 665 nm/620 nm ratio value)/(background 665 nm/620 nm ratio value))×100 Equation 1
Selective binding molecules are defined as those scFv and Tn3 PRSIM binding molecules that bind to HCV NS3/4A PR (S139A) in complex with simeprevir and no binding to HCV NS3/4A PR (S139A).
A general note: TR-FRET usually uses a lanthanide donor and a delayed reading to cut background.

In experiment [3] the target is T1, HCV NS3/4A PR (S139A). As to the kind of experiment: Phage ELISA. It counts as binding. Conditions: phage ELISA signal with simeprevir divided by signal without simeprevir. As for the experimental part: Specific binding to HCV NS3/4A PR (S139A) was assessed by phage ELISA using single phagemid scFv or Tn3 clones induced for expression as described ((Osbourn et al. 1996)). Briefly, individual TG1 colonies encoding phage clones from round 3 and round 4 selection outputs, and negative control clones, were grown in 96 well plates at […] shaking at 280 rpm to log phase in media containing 100 μg/ml ampicillin and 2% (w/v) glucose. Helper phage was then added to each well and the plates incubated at […] for 1 hour, shaking at 150 rpm. Plates were then centrifuged at 4500 rpm for 10 minutes at room temperature and the media was removed and replaced with media containing 100 μg/ml ampicillin and 50 μg/ml kanamycin. Plates were then incubated overnight at 25° C., shaking at 280 rpm. The following day, phage preparations were blocked by adding an equal volume of 2×PBS containing 6% (w/v) skimmed milk powder (Marvel) to each well of the plate.
Biotinylated HCV NS3/4A PR (S139A) was used to coat 96 well streptavidin-coated plates at 5 μg/ml […] in the presence and absence of a 3-fold excess of simeprevir (5.6 μM). Coated plates were washed with PBS and blocked with PBS containing 3% (w/v) skimmed milk powder (Marvel) for one hour. Following this blocking step, the plate wells were washed three times with PBS, prior to adding the blocked phage preps (produced as described in the phage rescue section). Phage preps were incubated with the antigens for 1 hour at room temperature prior to washing three times with PBS/Tween 20 (0.1% v/v). Phage that bound specifically to the antigen coated plate were detected using an anti-M13 phage-HRP tagged antibody (GE Healthcare), followed by detection using 3,3′, 5,5′-Tetramethylbenzidine (TMB; Sigma). The detection reaction was stopped using 0.5 M H2S04 and plates were read using a […] at 450 nm. Fluorescent readings determined for each clone binding to biotinylated HCV NS3/4A PR (S139A) in the presence of simeprevir was compared to those binding in the absence of simeprevir, by dividing the signal observed in the presence of simeprevir to the signal observed in the absence of simeprevir.
In general terms: In an ELISA, binding on a coated surface is turned into a signal by an enzyme label.

B1: PRSIM_33: Tn3 PRSIM binding molecule, SEQ ID NO: 7 (protein)
chain: RLDAPSQIEVKDVTDTTALITWYPPGRWYDDIWYFELTYGIKDVPGDRTTIKLARGDDVYSIGNLKPDTEYEVSLISWGPDRGDRAGSNPAKITFKTGL
modifications: PRSIM_33
For B1, in experiment [1] (10 nM simeprevir present), the Rmax is reported as 171.9 RUs, the ka stood at 3.65e+06 M⁻¹ s⁻¹ and the kd came to 0.0303 s⁻¹. Further, the “HTRF max. signal (% delta F)” value in experiment [2] is listed as 1704 % delta F.

B2: PRSIM_04: scFv PRSIM binding molecule, SEQ ID NO: 11 (protein)
scFv: QVQLVQSGAEVKKPGSSVKVSCKASGGTFSSYAISWVRQAPGQGLEWMGGIIPIFGTANYAQKFQGRVTITADESTSTAYMELSSLRSEDTAVYYCARGMAHFYQFDLWGQGTLVTVSSGGGGSGGGGSGGGGSAQSVLTQPPSASGTPGQRVTISCSGSSSNIGSNTVNWYQQLPGTAPKLLIYSNNQRPSGVPDRFSGSKSGTSASLAISGLQSEDEADYYCAAGDHDHEHVVFGGGTKLTVL
modifications: PRSIM_04
In experiment [1] (10 nM simeprevir present), B2 displayed a Kd of 11.2 nM, an Rmax of 65.9 RUs, a ka of 1.74e+07 M⁻¹ s⁻¹ and a kd of 0.195 s⁻¹. The “HTRF max. signal (% delta F)” value in experiment [2] amounted to 1055 % delta F. In addition, the “Binding fold change [(HCV protease + Simeprevir binding)/HCV protease alone]” value (shortened to “Binding fold change”) in experiment [3] was 30.3.

B3: PRSIM_72: scFv PRSIM binding molecule, SEQ ID NO: 14 (protein)
scFv: QVQLVQSGAEVKKPGSSVKVSCKASGGTFSSYAISWVRQAPGQGLEWMGGIIPIFGTANYAQKFQGRVTITADESTSTAYMELSSLRSEDTAVYYCARGMAHFYQFDLWGQGTLVTVSSGGGGSGGGGSGGGGSAQSVLTQPPSASGTPGQRVTISCSGSSSNIGSNTVNWYQQLPGTAPKLLIYSNNQRPSGVPDRFSGSKSGTSASLAISGLQSEDEADYYCAAGDHDHEHVVFGGGTKLTVL
modifications: PRSIM_72
For the molecule B3, in experiment [1] (10 nM simeprevir present), the Kd was determined as 1 nM, the Rmax is recorded as 33.4 RUs, the ka worked out at 1.18e+06 M⁻¹ s⁻¹ and the kd was found to be 0.00118 s⁻¹. For the same molecule, the “HTRF max. signal (% delta F)” value in experiment [2] came out at 1107 % delta F. The “Binding fold change” value in experiment [3] is 12.5.

B4: PRSIM_75: scFv PRSIM binding molecule, SEQ ID NO: 15 (protein)
scFv: EVQLVQSGAEVKKPGSSVKVSCKASGGSFNSYTLDWVRQAPGQGLEWMGGIIPVFGSPNYGQKFQGRVTITADESTSTAYMELSSLKSDDTAVYYCARGLVYQPLDSWGRGTLVTVSSGGGGSGGGGSGGGGSAQAVLTQPSSASGTPGQRVTISCSGSSSNIGSYTVNWYQQFPGTAPKLLIYSNTQRPSGVPDRFSGSKSGTSASLAISGLQSEDEADYYCAAWDDSLNGWVFGGGTKVTVL
modifications: PRSIM_75
As to B4, in experiment [1] (10 nM simeprevir present), the affinity, expressed as Kd, was 0.3 nM; the Rmax is reported as 88.8 RUs; the ka turned out to be 9.09e+06 M⁻¹ s⁻¹; the kd turned out to be 0.00267 s⁻¹. Also, in experiment [2], the “HTRF max. signal (% delta F)” value was determined as 1030 % delta F. Further, the “Binding fold change” value in experiment [3] worked out at 6.9.

B5: PRSIM_57: scFv specific for HCV NS3/4A PR (S139A):simeprevir complex, SEQ ID NO: 12 (protein)
scFv: QVQLVQSGAEVKKPGSSVKVSCKASGGTFSSYAISWVRQAPGQGLEWMGGIIPIFGTANYAQKFQGRVTITADESTSTAYMELSSLRSEDTAVYYCARHTNYITVFDYWGQGTLVTVSSGGGGSGGGGSGGGGSAQSVLTQPPSASGTPGQRVTISCSGSSSNIGSNTVNWYQQLPGTAPKLLIYSNNQRPSGVPDRFSGSKSGTSASLAISGLQSEDEADYYCAAWDHHWEQVVFGGGTKLTVL
modifications: PRSIM_57
Take B5: in experiment [1] (10 nM simeprevir present), the Kd was 15 nM, the Rmax is 69.1 RUs, the ka amounted to 1.73e+07 M⁻¹ s⁻¹ and the kd is 0.26 s⁻¹. Moreover, the “HTRF max. signal (% delta F)” value in experiment [2] came out at 1076 % delta F. In addition, the “Binding fold change” value in experiment [3] amounted to 15.7.

B6: PRSIM_23: Tn3 protein specific for HCV NS3/4A PR (S139A):simeprevir complex, SEQ ID NO: 5 (protein)
chain: RLDAPSQIEVKDVTDTTALITWVDPRYDDIWWFELTYGIKDVPGDRTTIKLYLNDPYYSIGNLKPDTEYEVSLISYTGDSYSRSGSNPAKITFKTGL
modifications: PRSIM_23
Consider B6, for which, in experiment [1] (10 nM simeprevir present), the Kd was 6.3 nM, the Rmax stood at 284 RUs, the ka stood at 5.03e+06 M⁻¹ s⁻¹ and the kd was determined as 0.0318 s⁻¹. For the same molecule, in experiment [1] (‘WT’ (S139A), 20 nM simeprevir), the Kd was 5.4 nM, the Rmax is 215 RUs, the ka amounted to 5.59e+09 M⁻¹ s⁻¹ and the kd is 31 s⁻¹. In experiment [2], the “HTRF max. signal (% delta F)” value amounted to 1573 % delta F. The “Binding fold change” value in experiment [3] came to 23.8.

B7: PRSIM_67: scFv PRSIM binding molecule, SEQ ID NO: 13 (protein)
scFv: EVQLVQSGAEVKKPGAAVRISCKTSGYVFTSYYVHWVRQAPGQGLEWMGVINPSGGNTNYAQKFQDRVTMTRDTSTTTVYMELSSLMFDDTAVYYCAKRDYGGPLANWGRGTLVTVSSGGGGSGGGGSGGGGSALSYELTQPPSVSEAPRQRVTISCSGSSSNIGNNAVNWYQQLPGKAPKLLIFYDDLLPSGVSDRFSGSKSGTSASLAISGLQSEDEADYYCAAWDDSLNGLVFGTGTKLTVL
modifications: PRSIM_67
In experiment [1] (10 nM simeprevir present), B7 registered a Kd of 11.5 nM, an Rmax of 19.3 RUs, a ka of 1.97e+07 M⁻¹ s⁻¹ and a kd of 0.226 s⁻¹. Besides, the “HTRF max. signal (% delta F)” value in experiment [2] was 1708 % delta F. Besides, the “Binding fold change” value in experiment [3] was 12.7.
